Measurements reported in patent publication US20090123489A1 (IMMATICS BIOTECHNOLOGIES, published 2009).

Biological target: HLA-A*0201 (recombinant heavy chain with beta-2 microglobulin) (human)
Assay: ELISA-based HLA refolding assay
Method: Stable HLA/peptide complexes consist of three molecules: HLA heavy chain, beta-2 microglobulin (b2m) and the peptidic ligand. […] The availability of these molecules is used in an ELISA-based assay to measure the affinity of interaction between peptide and HLA class I molecule (Sylvester-Hvid et al., 2002).
The amount of de novo-folded HLA/peptide complexes was determined by a quantitative ELISA. Dissociation constants (KD values) were calculated using a standard curve recorded from dilutions of a calibrant HLA/peptide complex.

Binding result, binds:
ALTTLMHQL (9-mer from PTPRZ1) [PTP-001]
KVFAGIPTV [PTP-005]
FLLPDTDGL [PTP-004]
SLWAGVVVL [CHI-001]
FLYKVILSL [PTP-002]
AIIDGVESV [PTP-003]

Biological target: T1, HLA-A*0205 (human)
T1 construct: whole, on cells; Native HLA precipitated from tumor tissue
Assay: peptide eluted from HLA precipitated from glioblastoma tissue, identified by ESI-LCMS

Binding result, binds:
ALTTLMHQL (9-mer from PTPRZ1) [PTP-001]
